The values that follow come from the supplement of paper PMC10567573.

This series in a line: protein stability index of a GFP-peptide fusion (GPS, HEK-293T) (PSI 1-6); higher = more stable.
Setting [1] is: treatment: DMSO, c terminus: a fixed tail appended.
Setting [2] is: treatment: MLN4924 1 uM, 8 h, c terminus: a fixed tail appended.

± gives the standard deviation.
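Note: 24-mer peptide tiles fused after GFP, lentivirally expressed, FACS-sorted into six equal bins by GFP/DsRed ratio, decoded by Illumina sequencing, PSI is the read-weighted mean bin number.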

For KELADFIRERATIEETYSKAMAKL [FCHO1], the protein stability index worked out at 3.16 ± 0.21 under setting [1] and 3.31 ± 0.29 under setting [2].
The sequence KELEARVRKPAEAERYKLERLAEA [FLOT1] came in with a protein stability index under setting [1] of 4.88 ± 0.29 and a protein stability index under setting [2] of 4.95 ± 0.16.
For KEQRKQMKGRGQLEKPPAPNQAMV [TBC1D10A], the protein stability index reads like this: under setting [1], 4.95 ± 0.1; under setting [2], 5.01 ± 0.34.
KFLPSSEEDNDDAKILPSPVQGSS [DRICH1]: the protein stability index reads like this: under setting [1], 5.21 ± 0.25; under setting [2], 5.47 ± 0.17.
As to KFTNKEWETIRSFKDEWTQLDMFY [AASDHPPT], the protein stability index amounted to 2 ± 0.36 under setting [1] and 2.22 ± 0.23 under setting [2].
For KGRHHRGRGGEPRAYFMSDTREEK [CHGB], the protein stability index worked out at 4.93 ± 0.12 under setting [1] and 4.95 ± 0.096 under setting [2].
As for KGTPASKLILGMPTYGRSFTLASS [CHIT1], the protein stability index under setting [1] was 2.47 ± 0.28 and the protein stability index under setting [2] came out at 2.54 ± 0.21.
Consider KGVQQKRPSEAQSVILRRYFLELT [DENND6A], for which the protein stability index worked out at 2.47 ± 0.098 under setting [1] and 2.57 ± 0.22 under setting [2].
For KGYPDGVKSIVVKGYNIWTGGPDA [TLE6], in that order: 2.68 ± 0.28 and 2.8 ± 0.49.
On to KHFKVQLVDNVYCIGQRRFHTMDE [NCK2], for which the protein stability index under setting [1] is 2.48 ± 0.16 and the protein stability index under setting [2] turned out to be 2.44 ± 0.37.
As for KINENVAAGMRFPLPEAIDPDVGV [PCDHGA10], the protein stability index is 3.79 ± 0.081 under setting [1] and 4.26 ± 0.44 under setting [2].
Turning to KKGLFLKHVEYEVSSQRFKSSVYR [SNX8], the protein stability index is 2.38 ± 0.14 under setting [1] and 2.91 ± 0.28 under setting [2].
With KKKYMPYNHQHKYFFLIGPPALLP [FADS1], the protein stability index is, setting by setting: under setting [1], 3.14 ± 0.67; under setting [2], 1.76 ± 0.053.
Take KKVLNHGYDDDNHDYIVRSGERWL [DYRK1B]: the protein stability index was determined as 3.27 ± 0.39 under setting [1] and 3.55 ± 0.49 under setting [2].
For KLERIARLEDKVKTLKAENAGLSS [JUNB], in that order: 3.85 ± 0.34 and 3.97 ± 0.22.
For KLKLTNNHLDPFGHIILNSMHKYQ [TBX5], the protein stability index runs as follows: under setting [1], 2.26 ± 0.37; under setting [2], 2.34 ± 0.25.
As to KLPLPSTLRSHLKSFSMAKGLNAR [RAB40A], the protein stability index came to 2.56 ± 0.18 under setting [1] and 2.68 ± 0.15 under setting [2].
Regarding KLVVHDCPVWDIFDSDWYTSRNLI [RHOBTB3], the protein stability index by setting is: under setting [1], 2.62 ± 0.43; under setting [2], 2.66 ± 0.18.
KMIGFPSSAGSVSPRSTSVTTTSS [KRT13]: the protein stability index by setting is: under setting [1], 4.4 ± 0.067; under setting [2], 4.16 ± 0.096.
Consider KPAEYGYVSLGRLGAAKGALHPGC [CEBPB], for which the protein stability index stood at 2.94 ± 0.11 under setting [1] and 3.06 ± 0.32 under setting [2].
With KPAFIGKTNLDGMITVQLPEVPAN [PTPRD], the protein stability index by setting is: under setting [1], 3.77 ± 0.16; under setting [2], 3.81 ± 0.19.
On to KQQNVAHCMLVSNRVSWWGSTLAM [ZBED1], for which the protein stability index reads like this: under setting [1], 2.19 ± 0.37; under setting [2], 2.03 ± 0.31.
In the same order, the values of KRCINLWKYALDMQQSNLDPLSPM [FEM1C] are 2.33 ± 0.48 and 2.07 ± 0.38.
For KREEEALEERRLSRGEIPTLQRS [PKD2L1], the protein stability index (treatment: DMSO, c terminus: native) came out at 5.33 ± 0.22 and the protein stability index (treatment: MLN4924 1 uM, 8 h, c terminus: native) was found to be 5.23 ± 0.28.
Regarding KRNKRNPIFQDSQDTEVFSWSDNE [FAM104B], the protein stability index reads like this: under setting [1], 4.46 ± 0.21; under setting [2], 4.58 ± 0.22.
With KRQVPTEQAQAYAERLGVTFFEVS [RAB40B], the protein stability index under setting [1] worked out at 2.99 ± 0.22 and the protein stability index under setting [2] came out at 3.23 ± 0.23.
Turning to KSKVVGDRENGSDNLPSSAGSGDK [TPD52L2], the protein stability index by setting is: under setting [1], 5.39 ± 0.1; under setting [2], 5.55 ± 0.16.
KSLEGDLEDLKDQIAQLEASLAAA [LMNB1]: the protein stability index under setting [1] worked out at 4.48 ± 0.23 and the protein stability index under setting [2] is 4.23 ± 0.44.
In the same order, the values of KSQDLAKIMADIRAQYDELARKNR [KRT18] are 3.05 ± 0.41 and 3.29 ± 0.65.
In the same order, the values of KTIEELRDKILTATIENNRVILEI [KRT13] are 2.57 ± 0.46 and 2.71 ± 0.64.
KVQTVIILGKVILWILHLLLECYI [TMEM192]: the protein stability index came to 2.5 ± 0.62 under setting [1] and 2.35 ± 0.26 under setting [2].
In the same order, the values of KYDPHTGHWTNVTPMATKRSGAGV [KLHL12] are 3.69 ± 0.47 and 3.78 ± 0.17.
Turning to KYLKPSGNMFPTIGDVHLAPFTDE [CARM1], the protein stability index was 3.69 ± 0.1 under setting [1] and 3.61 ± 0.37 under setting [2].
With KYLKVPQDPLKFYKKIYFCHSCQL [IQUB], the protein stability index under setting [1] worked out at 2.24 ± 0.47 and the protein stability index under setting [2] is 1.97 ± 0.2.
In the same order, the values of LACRLTPDMETKLLFMTSRVRFGQ [INTS3] are 2.2 ± 0.16 and 2.23 ± 0.22.
Consider LALGRERLGEIHTLPLPASLKAYL [SPSB1], for which the protein stability index was 2.24 ± 0.38 under setting [1] and 2.15 ± 0.19 under setting [2].
As to LAPAGQTSEESRPRLSQLSVTDVT [TNXB], the protein stability index under setting [1] amounted to 4.64 ± 0.68 and the protein stability index under setting [2] was 5.13 ± 0.31.
Turning to LASLPLKADTKGFCNISLFEDLPL [PLAGL1], the protein stability index turned out to be 2.33 ± 0.19 under setting [1] and 2.43 ± 0.1 under setting [2].
In the case of LASSLSPSQDERMRSPQNLHSQED [NOL4L], the protein stability index runs as follows: under setting [1], 5.37 ± 0.38; under setting [2], 5.54 ± 0.12.
Turning to LATTEKKTEQQRRREKAVHRLRVQ [NOP53], the protein stability index runs as follows: under setting [1], 4.34 ± 0.19; under setting [2], 4.37 ± 0.17.
Take LCEKEPLGNVLFSPICLSTSLSLA [SERPINB5]: the protein stability index runs as follows: under setting [1], 2.13 ± 0.34; under setting [2], 2.18 ± 0.34.
As for LDDLSQKLKPLGEAEREFILNLKK [NLN], the protein stability index runs as follows: under setting [1], 3.36 ± 0.44; under setting [2], 3.07 ± 0.22.
LDGQLDFEEFVHYLQDHEKKLRLV [SLC25A25] displayed a protein stability index under setting [1] of 3.3 ± 0.68 and a protein stability index under setting [2] of 2.98 ± 0.33.
Turning to LDLSEEDSDDPSVTLELSQLSMLP [VDR], the protein stability index is, setting by setting: under setting [1], 4.62 ± 0.3; under setting [2], 4.73 ± 0.26.
In the case of LDNCVEVGRIANTYNLTEVDKYVN [KLHL13], the protein stability index runs as follows: under setting [1], 4.12 ± 0.17; under setting [2], 3.94 ± 0.23.
LDQPAFQQLVSFSESGSLGNSSGS [ISL2] yielded a protein stability index under setting [1] of 4.43 ± 0.13 and a protein stability index under setting [2] of 4.56 ± 0.075.
LEDLERELDEPQHEMVAHRHRQEV [ZSCAN9]: the protein stability index under setting [1] was 5.56 ± 0.12 and the protein stability index under setting [2] is 5.47 ± 0.072.
With LEECLRLLEATCPFGENAEFPADI [NFE2L1], the protein stability index is, setting by setting: under setting [1], 3.61 ± 0.68; under setting [2], 3.61 ± 0.23.
As for LEEVAVQQTGDDDEVDDFEDFIFS [PBXIP1], the protein stability index came to 5.43 ± 0.36 under setting [1] and 5.41 ± 0.27 under setting [2].
As to LEGFQAQGHPPSLFPPKAKSNQPK [ATE1], the protein stability index worked out at 5.16 ± 0.19 under setting [1] and 5.19 ± 0.18 under setting [2].
On to LEHGADPTVKDLIGGFTALHYAAM [ASB7], for which the protein stability index under setting [1] worked out at 2.5 ± 0.45 and the protein stability index under setting [2] is 2.54 ± 0.38.
Take LEKCKTLVSQSNDLSSLRAKYPHD [SPACA9]: the protein stability index reads like this: under setting [1], 4.29 ± 0.16; under setting [2], 4.4 ± 0.19.
For LELVINYQQLCIYWTKYYDFKNPI [OAS1], in that order: 3.22 ± 0.24 and 3.33 ± 0.18.
In turn, LEPMKSRAPQLHLEYRFYEQLGSG [CSNK1G3] had a protein stability index under setting [1] of 2.91 ± 0.2 and a protein stability index under setting [2] of 2.63 ± 0.47.
On to LEPSTPYRFLLYGLHEGKRLGPLS [TNXB], for which the protein stability index came out at 2.44 ± 0.3 under setting [1] and 2.46 ± 0.15 under setting [2].
As for LERLAYLHARLRELLCELGRPSMV [PRAME], the protein stability index by setting is: under setting [1], 2.42 ± 0.16; under setting [2], 2.3 ± 0.33.
Turning to LFIILQVGLNTIADLWYLFGDLSL [POMT2], the protein stability index was 3.06 ± 0.84 under setting [1] and 3.17 ± 0.064 under setting [2].
Turning to LFLFGYKFSGLYILSFTVIMVGFI [SLC35F2], the protein stability index is 3.64 ± 0.12 under setting [1] and 3.18 ± 0.41 under setting [2].
As to LFLGRILSLTSSASRLLTTALTSF [FANCE], the protein stability index by setting is: under setting [1], 2.44 ± 0.1; under setting [2], 2.27 ± 0.19.
For the sequence LGDLLMPTMAPAGQPAPVSMVPPS [SNAP91], the protein stability index under setting [1] was 3.26 ± 0.2 and the protein stability index under setting [2] came to 3.51 ± 0.18.
In the case of LGEDNQPETQLFWDKEPWFWHDTL [TLE6], the protein stability index by setting is: under setting [1], 3.37 ± 0.35; under setting [2], 3.32 ± 0.27.
For LGGVKKSATLRSFEGLMGTIKSKV [TPD52L3], in that order: 2.64 ± 0.3 and 2.54 ± 0.26.
With LGSTKLSDKDKAVGIFNTVINPML [OR3A1], the protein stability index reads like this: under setting [1], 3 ± 0.46; under setting [2], 3.19 ± 0.28.
On to LGSYKAQKTSRSSSIPCSGSLDGR [PPEF2], for which the protein stability index is, setting by setting: under setting [1], 4.177 ± 0.013; under setting [2], 4.43 ± 0.14.
As to LGVALFTMLAGHYPFQDSEPVLLF [TRIB3], the protein stability index runs as follows: under setting [1], 2.94 ± 0.59; under setting [2], 2.93 ± 0.27.
With LHLKRQPKRRWLFWNSPSSPSSSA [RHOBTB2], the protein stability index runs as follows: under setting [1], 2.27 ± 0.25; under setting [2], 2.53 ± 0.21.
In the same order, the values of LHYKWIPVEDSHTADISSHFQEAI [DUSP5] are 2.17 ± 0.23 and 2.25 ± 0.52.
In the case of LHYQDTDSDVPEQRDSKCKVKWTH [MYBL2], the protein stability index came to 3.77 ± 0.32 under setting [1] and 4.05 ± 0.19 under setting [2].
Take LIKNFHQYSVEGGKETLTPSELRD [S100A14]: the protein stability index reads like this: under setting [1], 4.15 ± 0.2; under setting [2], 4.3 ± 0.26.
In the case of LILELVSGGELFDFLAEKESLTED [DAPK3], the protein stability index is, setting by setting: under setting [1], 1.94 ± 0.18; under setting [2], 2.49 ± 0.43.
With LIQQFLTLRPDQQLHIFNTLRSHL [CDS2], the protein stability index by setting is: under setting [1], 2.37 ± 0.16; under setting [2], 2.34 ± 0.27.
Regarding LIYASYFALIAVVFLASGAVSVMK [SLC19A2], the protein stability index was 2.95 ± 0.27 under setting [1] and 3.44 ± 0.43 under setting [2].
